Measured values published in US20130315910A1 (Xencor, published 2013).

T1: mFcγRIV
T1 construct: also called mouse FcγRIV; not shown: C-terminal His and GST tags (named only on our card)
T1 chain: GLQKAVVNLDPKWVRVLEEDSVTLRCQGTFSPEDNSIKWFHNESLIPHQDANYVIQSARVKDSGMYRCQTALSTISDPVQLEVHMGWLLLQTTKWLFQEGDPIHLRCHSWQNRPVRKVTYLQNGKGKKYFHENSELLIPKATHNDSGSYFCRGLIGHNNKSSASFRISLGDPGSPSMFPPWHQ

T2: mFcγRIIb (Mus musculus, UniProt P08101)
T2 construct: extracellular region, C-terminal His- and GST-tag; also called mouse FcγRII
T2 sequence (receptor extracellular region, looked up): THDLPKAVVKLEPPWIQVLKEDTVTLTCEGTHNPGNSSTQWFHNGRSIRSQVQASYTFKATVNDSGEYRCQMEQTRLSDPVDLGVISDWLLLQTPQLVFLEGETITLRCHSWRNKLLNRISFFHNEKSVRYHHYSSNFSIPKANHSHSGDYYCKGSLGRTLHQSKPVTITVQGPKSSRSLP

T3: cynoFcγRIIb (Macaca fascicularis, UniProt A0A140HDP4)
T3 construct: extracellular region, C-terminal His- and GST-tag; also called cynomolgus monkey FcγRIIb
T3 sequence (receptor extracellular region): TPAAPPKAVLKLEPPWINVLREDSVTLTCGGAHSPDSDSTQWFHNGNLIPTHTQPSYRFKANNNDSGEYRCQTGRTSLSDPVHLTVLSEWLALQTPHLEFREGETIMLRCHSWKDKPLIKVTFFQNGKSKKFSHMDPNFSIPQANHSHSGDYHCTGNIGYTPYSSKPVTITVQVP

T4: human FcγRIIa (131H), His- and GST-tagged (human, UniProt P12318 34-217)
T4 construct: also called H131 FcγRIIa; HIIa; not shown: 6xHis and GST tags of the pTT5 vector
T4 sequence (looked up): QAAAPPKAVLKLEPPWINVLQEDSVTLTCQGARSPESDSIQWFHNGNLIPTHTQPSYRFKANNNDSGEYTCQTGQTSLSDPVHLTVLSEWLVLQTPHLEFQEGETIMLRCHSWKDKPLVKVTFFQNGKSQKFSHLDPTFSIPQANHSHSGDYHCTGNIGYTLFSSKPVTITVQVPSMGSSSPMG

T5: human FcγRIIa (131R), His- and GST-tagged (human, UniProt P12318 34-217)
T5 construct: Expressed in HEK293T cells, purified by nickel chromatography; also called R131 FcγRIIa; not shown: 6xHis and GST tags of the pTT5 vector
T5 sequence (looked up): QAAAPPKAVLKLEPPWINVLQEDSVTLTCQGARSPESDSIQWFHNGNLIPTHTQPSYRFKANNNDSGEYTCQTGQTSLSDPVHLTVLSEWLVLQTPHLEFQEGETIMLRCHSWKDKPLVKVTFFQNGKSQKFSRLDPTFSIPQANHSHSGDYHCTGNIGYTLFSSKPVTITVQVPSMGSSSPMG

T6: human FcγRIIb receptor protein (R&D Systems) (human, UniProt P31994 46-217)
T6 construct: Bought protein injected over captured antibody in Biacore; also called CD32b
T6 sequence (looked up): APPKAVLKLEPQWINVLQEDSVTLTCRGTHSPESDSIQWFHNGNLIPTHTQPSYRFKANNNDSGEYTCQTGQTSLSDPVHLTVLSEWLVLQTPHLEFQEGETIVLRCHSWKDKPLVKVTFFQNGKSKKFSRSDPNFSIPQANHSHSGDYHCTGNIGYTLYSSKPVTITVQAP


Assays:
mFcγRIV = target: T1, mFcγRIV; assay: SPR, off-rate
Experimental: (§1) Variants were screened for receptor affinity using Biacore™ technology, also referred to as Biacore herein, a surface plasmon resonance (SPR) based technology for studying biomolecular interactions in real time. SPR measurements were performed using a Biacore 3000 instrument (Biacore, Piscataway, N.J.). A protein A/G (Pierce Biotechnology) CM5 biosensor chip (Biacore) was generated using a standard primary amine coupling protocol. All measurements were performed using HBS-EP buffer (10 mM HEPES pH 7.4, 0.15 M NaCl, 3 mM EDTA, 0.005% vol/vol surfactant P20, Biacore). Antibodies at 20 nM or 50 nM in HBS-EP buffer were immobilized on the protein A/G surface and FcγRs were injected. After each cycle, the surface was regenerated by injecting glycine buffer (10 mM, pH 1.5). Data were processed by zeroing time and response before the injection of FcγR and by subtracting appropriate nonspecific signals (response of reference channel and injection of running buffer). Kinetic analyses were performed by global fitting of binding data with a 1:1 Langmuir binding model using BIAevaluation software (Biacore).
(§2) Variant antibodies were tested for their affinity to mouse or cynologous monkey FcγRs using Biacore SPR as described above. Specifically, antibodies were first immobilized on a protein A/G chip to high density, and then followed by injections of the extracellular domain of the mouse or cynologous monkey FcγR of interest. Both association and dissociation phases were tracked in real time using the Biacore technology.

mFcγRIIb = target: T2, mFcγRIIb; assay: SPR, off-rate
Experimental: as §1, §2

cynoFcγRIIIa = target: T7, cynoFcγRIIIa (Macaca fascicularis, UniProt Q8SPW2); assay: SPR, off-rate
T7 construct: extracellular region, C-terminal His- and GST-tag; also called cynomolgus monkey FcγRIIIa
Experimental: as §1, §2

cynoFcγRIIb [1] = target: T3, cynoFcγRIIb; assay: SPR
[2] = target: T4, human FcγRIIa (131H), His- and …; assay: SPR
[3] = target: T5, human FcγRIIa (131R), His- and …; assay: SPR
[4] = target: T6, human FcγRIIb receptor protein (R&D …); assay: SPR
[5] = target: T8, human FcγRIIIa (158V), His- and GST-tagged (human, UniProt P08637 17-208); assay: SPR
T8 construct: also called V158 FcγRIIIa; VIIIa; not shown: 6xHis and GST tags of the pTT5 vector

[6] = target: T9, human FcγRI receptor protein (R&D Systems) (human, UniProt P12314 16-288); assay: SPR
T9 construct: also called soluble FcγRI; solFcγRI

cynoFcγRIIb [7] = target: T3, cynoFcγRIIb; assay: SPR, off-rate
Experimental: as §1, §2
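Wherever Fold vs WT IgG1 (off-rate) is given: fold improvement over WT IgG1 so higher means slower dissociation than WT.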

T7 sequence (Q8SPW2 17-208): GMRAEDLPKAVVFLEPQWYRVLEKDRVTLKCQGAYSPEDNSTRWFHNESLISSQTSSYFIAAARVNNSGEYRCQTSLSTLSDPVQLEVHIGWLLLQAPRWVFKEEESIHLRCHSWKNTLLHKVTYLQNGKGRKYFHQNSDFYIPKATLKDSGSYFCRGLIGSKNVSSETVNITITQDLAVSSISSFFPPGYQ
T9 sequence (P12314 16-288 limits assumed): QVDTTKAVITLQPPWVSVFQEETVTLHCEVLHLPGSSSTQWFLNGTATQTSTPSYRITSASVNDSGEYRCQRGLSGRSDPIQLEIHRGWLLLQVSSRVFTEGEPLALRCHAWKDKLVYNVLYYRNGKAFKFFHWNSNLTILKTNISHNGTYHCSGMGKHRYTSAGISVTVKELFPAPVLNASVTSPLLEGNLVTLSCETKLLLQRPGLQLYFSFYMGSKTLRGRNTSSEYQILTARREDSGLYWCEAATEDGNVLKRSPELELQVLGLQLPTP
T8 sequence (P08637 17-208 F176V): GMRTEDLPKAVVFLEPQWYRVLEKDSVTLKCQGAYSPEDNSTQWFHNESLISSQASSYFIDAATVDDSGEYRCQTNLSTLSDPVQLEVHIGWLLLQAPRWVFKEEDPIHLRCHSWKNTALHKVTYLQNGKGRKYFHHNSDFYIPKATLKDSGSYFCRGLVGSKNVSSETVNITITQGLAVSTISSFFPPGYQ

Binder	binding result (mFcγRIV)	binding result (mFcγRIIb)	binding result (cynoFcγRIIIa)	Fold vs WT IgG1 (off-rate) (cynoFcγRIIb [1]) [fold]	binding result [2]	Fold vs WT IgG1 [3] [fold]	Kd [3] [µM]	Fold vs WT IgG1 [4] [fold]	Kd [4] [µM]	binding result [5]	Fold vs WT IgG1 [6] [fold]	Kd [6] [µM]	binding result (cynoFcγRIIb [7])	binding result [3]	binding result [4]
G236N/S267E (antibody, human IgG1, kappa, HuAM4G7 anti-CD19 IgG1 (m1) with these Fc substitutions, EU index; copies: 2 + 2) heavy: not shown light: DIVMTQSPATLSLSPGERATLSCRSSKSLQNVNGNTYLYWFQQKPGQSPQLLIYRMSNLNSGVPDRFSGSGSGTEFTLTISSLEPEDFAVYYCMQHLEYPITFGAGTKLEIKRTVAAPSVFIFPPSDEQLKSGTASVVCLLNNFYPREAKVQWKVDNALQSGNSQESVTEQDSKDSTYSLSSTLTLSKADYEKHKVYACEVTHQGLSSPVTKSFNRGEC	no binding	no binding	no binding	0.587	no binding	3.27	0.263	19.8	0.0742	no binding	0.0355	0.00927			
G237E (antibody, human IgG1, kappa, HuAM4G7 anti-CD19 IgG1 (m1) with this Fc substitution, EU index; copies: 2 + 2) heavy: not shown light: DIVMTQSPATLSLSPGERATLSCRSSKSLQNVNGNTYLYWFQQKPGQSPQLLIYRMSNLNSGVPDRFSGSGSGTEFTLTISSLEPEDFAVYYCMQHLEYPITFGAGTKLEIKRTVAAPSVFIFPPSDEQLKSGTASVVCLLNNFYPREAKVQWKVDNALQSGNSQESVTEQDSKDSTYSLSSTLTLSKADYEKHKVYACEVTHQGLSSPVTKSFNRGEC	no binding	no binding	no binding			0.00859	100	0.0147	100				no binding		
G237H (antibody, human IgG1, kappa, HuAM4G7 anti-CD19 IgG1 (m1) with this Fc substitution, EU index; copies: 2 + 2) heavy: not shown light: DIVMTQSPATLSLSPGERATLSCRSSKSLQNVNGNTYLYWFQQKPGQSPQLLIYRMSNLNSGVPDRFSGSGSGTEFTLTISSLEPEDFAVYYCMQHLEYPITFGAGTKLEIKRTVAAPSVFIFPPSDEQLKSGTASVVCLLNNFYPREAKVQWKVDNALQSGNSQESVTEQDSKDSTYSLSSTLTLSKADYEKHKVYACEVTHQGLSSPVTKSFNRGEC	no binding	no binding	no binding										no binding	no binding	no binding
G236R (antibody, human IgG1, kappa, HuAM4G7 anti-CD19 IgG1 (m1) with this Fc substitution, EU index; copies: 2 + 2) heavy: not shown light: DIVMTQSPATLSLSPGERATLSCRSSKSLQNVNGNTYLYWFQQKPGQSPQLLIYRMSNLNSGVPDRFSGSGSGTEFTLTISSLEPEDFAVYYCMQHLEYPITFGAGTKLEIKRTVAAPSVFIFPPSDEQLKSGTASVVCLLNNFYPREAKVQWKVDNALQSGNSQESVTEQDSKDSTYSLSSTLTLSKADYEKHKVYACEVTHQGLSSPVTKSFNRGEC	no binding	no binding	no binding			0.00859	100	0.0147	100				no binding		
G236P (antibody, human IgG1, kappa, HuAM4G7 anti-CD19 IgG1 (m1) with this Fc substitution, EU index; copies: 2 + 2) heavy: not shown light: DIVMTQSPATLSLSPGERATLSCRSSKSLQNVNGNTYLYWFQQKPGQSPQLLIYRMSNLNSGVPDRFSGSGSGTEFTLTISSLEPEDFAVYYCMQHLEYPITFGAGTKLEIKRTVAAPSVFIFPPSDEQLKSGTASVVCLLNNFYPREAKVQWKVDNALQSGNSQESVTEQDSKDSTYSLSSTLTLSKADYEKHKVYACEVTHQGLSSPVTKSFNRGEC	no binding	no binding	no binding			0.0859	10	0.147	10				no binding		
G237K (antibody, human IgG1, kappa, HuAM4G7 anti-CD19 IgG1 (m1) with this Fc substitution, EU index; copies: 2 + 2) heavy: not shown light: DIVMTQSPATLSLSPGERATLSCRSSKSLQNVNGNTYLYWFQQKPGQSPQLLIYRMSNLNSGVPDRFSGSGSGTEFTLTISSLEPEDFAVYYCMQHLEYPITFGAGTKLEIKRTVAAPSVFIFPPSDEQLKSGTASVVCLLNNFYPREAKVQWKVDNALQSGNSQESVTEQDSKDSTYSLSSTLTLSKADYEKHKVYACEVTHQGLSSPVTKSFNRGEC	no binding	no binding	no binding			0.00859	100	0.0147	100				no binding		
G237S (antibody, human IgG1, kappa, HuAM4G7 anti-CD19 IgG1 (m1) with this Fc substitution, EU index; copies: 2 + 2) heavy: not shown light: DIVMTQSPATLSLSPGERATLSCRSSKSLQNVNGNTYLYWFQQKPGQSPQLLIYRMSNLNSGVPDRFSGSGSGTEFTLTISSLEPEDFAVYYCMQHLEYPITFGAGTKLEIKRTVAAPSVFIFPPSDEQLKSGTASVVCLLNNFYPREAKVQWKVDNALQSGNSQESVTEQDSKDSTYSLSSTLTLSKADYEKHKVYACEVTHQGLSSPVTKSFNRGEC	no binding	no binding	no binding			0.081	10.6	0.147	10				no binding		
L234K (antibody, human IgG1, kappa, HuAM4G7 anti-CD19 IgG1 (m1) with this Fc substitution, EU index; copies: 2 + 2) heavy: not shown light: DIVMTQSPATLSLSPGERATLSCRSSKSLQNVNGNTYLYWFQQKPGQSPQLLIYRMSNLNSGVPDRFSGSGSGTEFTLTISSLEPEDFAVYYCMQHLEYPITFGAGTKLEIKRTVAAPSVFIFPPSDEQLKSGTASVVCLLNNFYPREAKVQWKVDNALQSGNSQESVTEQDSKDSTYSLSSTLTLSKADYEKHKVYACEVTHQGLSSPVTKSFNRGEC	no binding	no binding	no binding			0.00859	100	0.0147	100				no binding		
P329E (antibody, human IgG1, kappa, HuAM4G7 anti-CD19 IgG1 (m1) with this Fc substitution, EU index; copies: 2 + 2) heavy: not shown light: DIVMTQSPATLSLSPGERATLSCRSSKSLQNVNGNTYLYWFQQKPGQSPQLLIYRMSNLNSGVPDRFSGSGSGTEFTLTISSLEPEDFAVYYCMQHLEYPITFGAGTKLEIKRTVAAPSVFIFPPSDEQLKSGTASVVCLLNNFYPREAKVQWKVDNALQSGNSQESVTEQDSKDSTYSLSSTLTLSKADYEKHKVYACEVTHQGLSSPVTKSFNRGEC	no binding	no binding	no binding			0.0859	10	0.147	10				no binding		
